In patent US20160113911A1, “METHODS AND COMPOSITIONS FOR THE TREATMENT OF CANCER” (THE GENERAL HOSPITAL CORPORATION, priority 2013, published 2016):

What was measured:
H3K36me3 = assay: H3K36 demethylase activity of KDM4A variants in transfected cells (immunofluorescence); format: cell-based; set-up: key: + indicates active; − indicates inactive; +/− indicates partial acitivty; details: KDM4A mutations
Experimental: The indicated NHF-tagged KDM4A deletion constructs were transfected into RPE cells grown on coverslips in 10 cm dishes using X-tremeGENE 9™ DNA transfection reagent (Roche). H3K36me3 and subcellular localization were assayed by examining transfected cells (positive for HA staining; HA.11 Covance) following fixation in 3.7% PFA in PBS (Whetstine et al., 2006).
All immunofluorescence experiments were performed as in (Black et al., 2013). For the localization experiment a minimum of 50 cells were blinded and scored. For the catalytic activity, cells overexpressing a high level of KDM4A WT or SNP-A482 were analyzed in a non quantitative manner.

H3K9me3 = assay: H3K9 demethylase activity of KDM4 variants in transfected cells; format: cell-based; set-up: key: + indicates active; − indicates inactive; +/− indicates partial acitivty; details: KDM4A mutations

| Molecule | H3k36 Demethylase Activity (H3K36me3) | H3k9 Demethylase Activity (H3K9me3) |
| --- | --- | --- |
| 2A-R218W: KDM4A mutation (protein) MASESETLNPSARIMTFYPTMEEFRNFSRYIAYIESQGAHRAGLAKVVPPKEWKPRASYDDIDDLVIPAPIQQLVTGQSGLFTQYNIQKKAMTVREFRKIANSDKYCTPRYSEFEELERKYWKNLTFNPPIYGADVNGTLYEKHVDEWNIGRLRTILDLVEKESGITIEGVNTPYLYFGMWKTSFAWHTEDMDLYSINYLHFGEPKSWYSVPPEHGKWLERLAKGFFPGSAQSCEAFLRHKMTLISPLMLKKYGIPFDKVTQEAGEFMITFPYGYHAGFNHGFNCAESTNFATRRWIEYGKQAVLCSCRKDMVKISMDVFVRKFQPERYKLWKAGKDNTVIDHTLPTPEAAEFLKESELPPRAGNEEECPEEDMEGVEDGEEGDLKTSLAKHRIGTKRHRVCLEIPQEVSQSELFPKEDLSSEQYEMTECPAALAPVRPTHSSVRQVEDGLTFPDYSDSTEVKFEELKNVKLEEEDEEEEQAAAALDLSVNPASVGGRLVFSGSKKKSSSSLGSGSSRDSISSDSETSEPLSCRAQGQTGVLTVHSYAKGDGRVTVGEPCTRKKGSAARSFSERELAEVADEYMFSLEENKKSKGRRQPLSKLPRHHPLVLQECVSDDETSEQLTPEEEAEETEAWAKPLSQLWQNRPPNFEAEKEFNETMAQQAPHCAVCMIFQTYHQVEFGGFNQNCGNASDLAPQKQRTKPLIPEMCFTSTGCSTDINLSTPYLEEDGTSILVSCKKCSVRVHASCYGVPPAKASEDWMCSRCSANALEEDCCLCSLRGGALQRANDDRWVHVSCAVAILEARFVNIAERSPVDVSKIPLPRFKLKCIFCKKRRKRTAGCCVQCSHGRCPTAFHVSCAQAAGVMMQPDDWPFVVFITCFRHKIPNLERAKGALQSITAGQKVISKHKNGRFYQCEVVRLTTETFYEVNFDDGSFSDNLYPEDIVSQDCLQFGPPAEGEVVQVRWTDGQVYGAKFVASHPIQMYQVEFEDGSQLVVKRDDVYTLDEELPKRVKSRLSVASDMRFNEIFTEKEVKQEKKRQRVINSRYREDYIEPALYRAIME | − | + |
| 2A-G225C: KDM4A mutation (protein) MASESETLNPSARIMTFYPTMEEFRNFSRYIAYIESQGAHRAGLAKVVPPKEWKPRASYDDIDDLVIPAPIQQLVTGQSGLFTQYNIQKKAMTVREFRKIANSDKYCTPRYSEFEELERKYWKNLTFNPPIYGADVNGTLYEKHVDEWNIGRLRTILDLVEKESGITIEGVNTPYLYFGMWKTSFAWHTEDMDLYSINYLHFGEPKSWYSVPPEHGKRLERLAKCFFPGSAQSCEAFLRHKMTLISPLMLKKYGIPFDKVTQEAGEFMITFPYGYHAGFNHGFNCAESTNFATRRWIEYGKQAVLCSCRKDMVKISMDVFVRKFQPERYKLWKAGKDNTVIDHTLPTPEAAEFLKESELPPRAGNEEECPEEDMEGVEDGEEGDLKTSLAKHRIGTKRHRVCLEIPQEVSQSELFPKEDLSSEQYEMTECPAALAPVRPTHSSVRQVEDGLTFPDYSDSTEVKFEELKNVKLEEEDEEEEQAAAALDLSVNPASVGGRLVFSGSKKKSSSSLGSGSSRDSISSDSETSEPLSCRAQGQTGVLTVHSYAKGDGRVTVGEPCTRKKGSAARSFSERELAEVADEYMFSLEENKKSKGRRQPLSKLPRHHPLVLQECVSDDETSEQLTPEEEAEETEAWAKPLSQLWQNRPPNFEAEKEFNETMAQQAPHCAVCMIFQTYHQVEFGGFNQNCGNASDLAPQKQRTKPLIPEMCFTSTGCSTDINLSTPYLEEDGTSILVSCKKCSVRVHASCYGVPPAKASEDWMCSRCSANALEEDCCLCSLRGGALQRANDDRWVHVSCAVAILEARFVNIAERSPVDVSKIPLPRFKLKCIFCKKRRKRTAGCCVQCSHGRCPTAFHVSCAQAAGVMMQPDDWPFVVFITCFRHKIPNLERAKGALQSITAGQKVISKHKNGRFYQCEVVRLTTETFYEVNFDDGSFSDNLYPEDIVSQDCLQFGPPAEGEVVQVRWTDGQVYGAKFVASHPIQMYQVEFEDGSQLVVKRDDVYTLDEELPKRVKSRLSVASDMRFNEIFTEKEVKQEKKRQRVINSRYREDYIEPALYRAIME | +/− | + |
